Measured values: patent US20080166698A1 (Genentech, published 2008)

Target: T1, recombinant human DAF (human, UniProt P08174 35-353, limits assumed)
T1 construct: also called decay accelerating factor; CD55
T1 sequence (looked up): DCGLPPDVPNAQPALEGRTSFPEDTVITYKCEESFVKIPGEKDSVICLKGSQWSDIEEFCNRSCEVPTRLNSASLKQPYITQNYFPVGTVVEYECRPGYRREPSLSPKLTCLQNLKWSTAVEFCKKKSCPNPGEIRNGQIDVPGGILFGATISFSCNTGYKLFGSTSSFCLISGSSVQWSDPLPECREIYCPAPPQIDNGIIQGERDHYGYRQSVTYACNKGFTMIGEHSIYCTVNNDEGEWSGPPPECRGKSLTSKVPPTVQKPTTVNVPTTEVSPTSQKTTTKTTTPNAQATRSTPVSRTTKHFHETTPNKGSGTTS
Assay: SPR (BIACORE 1000), recombinant human DAF on a CM-5 chip, LU30 scFv injected
Procedure: Affinity Measurements. Kinetic measurements were made by surface plasmon resonance using a BIACORE 1000™ Biosensor (Biacore, AB Uppsala, Sweden). CM-5 chips were functionalized with 350 response units recombinant human DAF in 10 mM sodium acetate (pH 4.6) or 8,000 response units bovine serum albumin as a negative control. The DAF-derivatized chip was saturated with LU30 scFv (25-100 nM) by injecting this fragment at 10 :l/min in PBS containing 0.5% (w/v) bovine serum albumin and 0.05% (v/v) TWEEN 20™. The resultant sensorgrams were analyzed using BIAEVALUATION™ software 3.0.

B1: LU30 scFv (scFv, V domains shown)
VH: QVKLQESGGGLVQPGGSLKLSCAASGFTFSGYGMSWIRQTPDKRLEWVATINSGGSYTYYSDSVKGRFTISRDNVKNTLYLQMSSLKSEDTAMYYCARRNGTLYYYLMDYWGRGTLVTVSS
VL: QSVLTQPPSASGSPGQSVTISCTGTSSDVGGYNYVSWYQQHPGKAPKFMIYDVSKRPSGVSNRFSGSKSGNTASLTISGVQAEDEADYYCSSYTSASTVIFGGGTKLTVL
notes: Human scFv from a naive phage library, secreted from E. coli and purified through its His tag; also called clone LU30; LU30 scFv fragment; not shown: scFv linker between the domains, domain order, and the His tag
Kd: 13 nM
koff: 0.0045 s⁻¹
kon: 340000 M⁻¹ s⁻¹
